Data as given in patent US20040132160A1 (University of Texas, published 2004).

How the values were obtained:
[1] = biological target: T1, full-length MURF-1 with C-terminal myc tag (murine, UniProt Q9ERP3 1-366); test: co-immunoprecipitation of 35S-labeled in vitro translated myc-tagged and Flag-tagged MURF-1 with Flag antibody M2
T1 construct: Expressed in transfected cells (Hela, Cos, 293T and others) or translated in vitro with 35S-methionine; also called myc-tagged MURF-1; myc-tagged MURF; not shown: C-terminal myc/HIS tag of vector pcDNA3.1 myc/HIS (Invitrogen)
T1 sequence: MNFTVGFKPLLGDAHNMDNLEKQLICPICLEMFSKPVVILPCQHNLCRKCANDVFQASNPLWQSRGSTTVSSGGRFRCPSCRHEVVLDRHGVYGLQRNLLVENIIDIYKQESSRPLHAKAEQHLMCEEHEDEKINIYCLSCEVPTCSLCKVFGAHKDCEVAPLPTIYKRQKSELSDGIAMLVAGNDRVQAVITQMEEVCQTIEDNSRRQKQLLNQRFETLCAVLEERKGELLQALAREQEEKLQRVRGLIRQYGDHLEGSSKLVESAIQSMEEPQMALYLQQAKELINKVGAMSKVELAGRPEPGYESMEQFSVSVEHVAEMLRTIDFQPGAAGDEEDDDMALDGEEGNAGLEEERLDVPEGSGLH
Excerpt: (§1) FIGS. 6A-6D—Mapping domains of MURF-1 required for homo-oligomerization. FIG. 6A. Various forms of N-terminal Flag-tagged MURF-1 and full-length C-terminal myc-tagged MURF-1 were in vitro translated in the presence of ³⁵S-methionine and immunoprecipitation performed as described in Material and Methods. The leucine-rich coiled-coil domain mediates homo-oligomerization of MURF-1. FIGS. 6B-D. MURF-1 binds to microtubules in a homo-oligomeric form. Hela Cells were transfected with Flag-tagged full-length MURF alone (FIG. 6B) or in combination with myc-tagged MURF-1 (FIGS. 6C and 6D) and immunofluorescence performed. Flag-tagged MURF-1 forms aggregates in the cytoplasm of the cell. In the presence of myc-tagged MURF-1, the Flag-tagged MURF-1 and myc-tagged MURF-1 are colocalized in filamentous structures in the cell. Identical results were obtained using native MURF-1 lacking an epitope tag.
In vitro transcription/translation was performed as directed by the manufacturer (Promega). Plasmids used were C-terminally myc-tagged full-length MURF-1 and various Flag-tagged deletions of MURF-1. Immunoprecipitations were performed using ³⁵S-methionine-labelled in vitro translation products. Briefly, ³⁵S-methionine-labelled products were incubated with agitation in 1 ml of immunoprecipitation buffer (PBS, 0.5% Triton X-100, 0.25 mM zinc sulphate) at 4° C. for 2 hours. […]

[2] = biological target: T2, MURF-1 (Muscle RING Finger 1), native protein without epitope tag (murine, UniProt Q9ERP3 1-366); test: immunofluorescence in cotransfected Hela cells, legend of FIGS. 6B-D
T2 construct: 366 amino acid protein, 41 kDa; also called endogenous MURF-1; native MURF-1
T2 sequence: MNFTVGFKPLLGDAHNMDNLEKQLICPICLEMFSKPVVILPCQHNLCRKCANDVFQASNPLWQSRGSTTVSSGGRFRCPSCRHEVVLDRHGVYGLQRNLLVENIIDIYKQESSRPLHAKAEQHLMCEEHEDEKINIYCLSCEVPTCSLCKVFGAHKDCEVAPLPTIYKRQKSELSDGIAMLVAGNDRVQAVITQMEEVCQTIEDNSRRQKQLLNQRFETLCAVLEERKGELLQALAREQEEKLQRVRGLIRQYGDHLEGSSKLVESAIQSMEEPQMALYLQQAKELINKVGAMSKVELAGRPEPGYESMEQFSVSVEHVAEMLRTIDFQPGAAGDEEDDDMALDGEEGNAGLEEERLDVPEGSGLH
Excerpt: as §1, with “The” for “FIGS. 6A-6D—Mapping domains of MURF-1 required for homo-oligomerization. FIG. 6A. Various forms of N-terminal Flag-tagged MURF-1 and full-length C-terminal myc-tagged MURF-1 were in vitro translated in the presence of ³⁵S-methionine and immunoprecipitation performed as described in Material and Methods. The”
For immunofluorescence, cells were extracted with 1% Triton X-100 in PBS for 1 minute, washed twice in PBS, and fixed for 15 minutes in 3.7% formalin in PBS. Cells were then washed three times in PBS and blocked in PBS containing 3% Bovine Serum Albumin and 0.1% NP40 for 30 minutes. All antibodies were incubated in fresh block solution for 60 minutes at ambient temperature. Myc-tagged versions of MURF-1 were detected using antibody 9E10 (Santa Cruz) at a dilution of 1:250. Flag-tagged versions of MURF-1 were detected using the M2 Flag antibody at a dilution of 1:500 (Kodak). Microtubules were detected using alpha-tubulin antibody at a dilution of 1:2000 (Sigma). Intermediate filaments were visualized using vimentin antibody at a dilution of 1:500 (Sigma). […]

binding result [1]: binds
binding result [2]: binds
B1: full-length MURF-1 with N-terminal Flag tag (other)
chain: MNFTVGFKPLLGDAHNMDNLEKQLICPICLEMFSKPVVILPCQHNLCRKCANDVFQASNPLWQSRGSTTVSSGGRFRCPSCRHEVVLDRHGVYGLQRNLLVENIIDIYKQESSRPLHAKAEQHLMCEEHEDEKINIYCLSCEVPTCSLCKVFGAHKDCEVAPLPTIYKRQKSELSDGIAMLVAGNDRVQAVITQMEEVCQTIEDNSRRQKQLLNQRFETLCAVLEERKGELLQALAREQEEKLQRVRGLIRQYGDHLEGSSKLVESAIQSMEEPQMALYLQQAKELINKVGAMSKVELAGRPEPGYESMEQFSVSVEHVAEMLRTIDFQPGAAGDEEDDDMALDGEEGNAGLEEERLDVPEGSGLH
notes: Translated in vitro with 35S-methionine for immunoprecipitation, or expressed in Hela cells; also called Flag-tagged MURF-1; Flag-MURF-1; not shown: N-terminal Flag tag (vector pECE-Flag, subcloned into pcDNA3.1)
